Data: patent US20240384323A1, “METHOD FOR DETERMINING PROTEASE ACTIVITY IN A BIOLOGICAL SAMPLE” (CytomX Therapeutics, Inc., priority 2021, published 2024)

Target: T1, IQ Probe (internally quenched linear polypeptide containing the S01 substrate)
T1 chain: LSGRSDNH

B1: Recombinant human MT-SP1 (membrane type serine protease 1; R&D Systems 3946-SEB) (protein)
chain: VVGGTDADEGEWPWQVSLHALGQGHICGASLISPNWLVSAAHCYIDDRGFRYSDPTQWTAFLGLHDQSQRSAPGVQERRLKRIISHPFFNDFTFDYDIALLELEKPAEYSSMVRPICLPDASHVFPAGKAIWVTGWGHTQYGGTGALILQKGEIRVINQTTCENLLPQQITPRMMCVGFLSGGVDSCQGDSGGPLSSVEADGRIFQAGVVSWGDGCAQRNKPGVYTRLPLFRDWIKENTGV
kcat/KM of the S01 substrate, IQ Probe relative to C225-S01: 4.6× and 3.5× times, respectively
